Reference: the supplement of paper PMC10724198
± gives the standard deviation of the averaged measurements.

How the values were obtained:
Saccharomyces cerevisiae [1] = assay: protein stability index of tFT-peptide fusion (C-terminal peptide) (PSI (0-1 scale)); higher = more stable (slower turnover)
Method: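 MPS profiling in S. cerevisiae of the tFT-X12 degron library: putative degron peptides plus stable controls, 12 aa, fused to the C-terminus of a sfGFP-mCherry timer. Cells are FACS-sorted into 8 mCherry/sfGFP bins and deep-sequenced. PSI runs from 0 (unstable) to 1 (stable). Backgrounds are wild type, das1Δ and doa10Δ at 30 °C, and wild type, das1Δ, cdc34-1 and cdc53-1 at 37 °C; 2-3 technical replicates each.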

Saccharomyces cerevisiae [2] = assay: as above; details: genetic background: wild type; temperature: 30 C
[3] = genetic background: cdc34-1, temperature: 37 C
[4] = genetic background: cdc53-1, temperature: 37 C
[5] = genetic background: das1 deletion, temperature: 30 C
[6] = genetic background: das1 deletion, temperature: 37 C
[7] = genetic background: doa10 deletion, temperature: 30 C
[8] = genetic background: wild type, temperature: 30 C
[9] = genetic background: wild type, temperature: 37 C
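Note: PSI is a weighted mean of sequencing reads over stability bins, variants kept only with over 10 reads, mCherry proximal and sfGFP distal, peptide attached via GGGS linker.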

Sequence | protein stability index (Saccharomyces cerevisiae [1]; [3]) | protein stability index (Saccharomyces cerevisiae [1]; [4]) | protein stability index (Saccharomyces cerevisiae [1]; [5]) | protein stability index (Saccharomyces cerevisiae [1]; [6]) | protein stability index (Saccharomyces cerevisiae [1]; [7]) | protein stability index (Saccharomyces cerevisiae [1]; [8]) | protein stability index (Saccharomyces cerevisiae [1]; [9]) | protein stability index (Saccharomyces cerevisiae [2])
AAFLGVLCWCWG | 0.436 ± 0.039 | 0.465 ± 0.0079 | 0.363 ± 0.033 | 0.486 ± 0.0051 | 0.323 ± 0.0063 | 0.351 ± 0.019 | 0.4703 ± 0.00083 | 0.433 ± 0.011
ACVRFPLVLVVF | 0.0242 ± 0.0039 | 0.0448 ± 0.015 | 0.0965 ± 0.018 | 0.0904 ± 0.0059 | 0.0902 ± 0.022 | 0.0825 ± 0.029 | 0.0644 ± 0.0039 | 0.147 ± 0.014
AFKRVFWALWWM | 0.367 ± 0.01 | 0.39 ± 0.0072 | 0.421 ± 0.03 | 0.563 ± 0.039 | 0.431 ± 0.032 | 0.299 ± 0.022 | 0.43827 ± 0.00033 | 0.36 ± 0.014
AFLFLFSITCIV | 0.181 ± 0.011 | 0.23 ± 0.0042 | 0.195 ± 0.029 | 0.342 ± 0.0063 | 0.197 ± 0.014 | 0.19 ± 0.028 | 0.313 ± 0.0012 | 0.241 ± 0.013
AFPVGFLVGLVV | 0.4381 ± 0.0028 | 0.469 ± 0.011 | 0.345 ± 0.024 | 0.499 ± 0.0067 | 0.319 ± 0.0075 | 0.348 ± 0.021 | 0.4647 ± 0.0044 | 0.431 ± 0.0065
AGCFFVVLCGFF | 0.436 ± 0.018 | 0.503 ± 0.04 | 0.334 ± 0.035 | 0.495 ± 0.016 | 0.311 ± 0.0056 | 0.326 ± 0.0067 | 0.4673 ± 0.0025 | 0.431 ± 0.0071
AIDLCIAVVGMV | 0.479 ± 0.042 | 0.491 ± 0.029 | 0.338 ± 0.035 | 0.5106 ± 0.0023 | 0.311 ± 0.015 | 0.342 ± 0.026 | 0.4829 ± 0.001 | 0.4439 ± 0.0022
AITHVILLVTPL | 0.562 ± 0.02 | 0.5803 ± 0.0043 | 0.411 ± 0.025 | 0.61 ± 0.059 | 0.384 ± 0.0029 | 0.417 ± 0.022 | 0.552 ± 0.0087 | 0.507 ± 0.04
ALFVGVVLLVCW | 0.0857 ± 0.0098 | 0.193 ± 0.023 | 0.177 ± 0.023 | 0.28 ± 0.0069 | 0.154 ± 0.013 | 0.156 ± 0.032 | 0.24564 ± 0.00015 | 0.298 ± 0.013
ALHGTVRNWQRQ | 0.673 ± 0.066 | 0.701 ± 0.059 | 0.63 ± 0.035 | 0.696 ± 0.011 | 0.191 ± 0.016 | 0.245 ± 0.0071 | 0.535 ± 0.04 | 0.39 ± 0.015
ALLLLLRRFFLV | 0.432 ± 0.034 | 0.659 ± 0.029 | 0.643 ± 0.014 | 0.739 ± 0.013 | 0.0867 ± 0.003 | 0.101 ± 0.044 | 0.0903 ± 0.02 | 0.154 ± 0.029
ALMTFTLVFTYM | 0.168 ± 0.0067 | 0.296 ± 0.0055 | 0.181 ± 0.022 | 0.324 ± 0.02 | 0.209 ± 0.026 | 0.173 ± 0.027 | 0.278 ± 0.027 | 0.251 ± 0.014
ALPLRSNILSVF | 0.446 ± 0.019 | 0.489 ± 0.037 | 0.344 ± 0.031 | 0.506 ± 0.0091 | 0.242 ± 0.01 | 0.283 ± 0.023 | 0.45 ± 0.011 | 0.3795 ± 0.0028
ALWFVLISILCL | 0.316 ± 0.016 | 0.353 ± 0.026 | 0.312 ± 0.024 | 0.427 ± 0.03 | 0.304 ± 0.007 | 0.291 ± 0.017 | 0.3896 ± 0.0022 | 0.378 ± 0.007
ARFCFRIFSFAS | 0.159 ± 0.018 | 0.178 ± 0.0049 | 0.288 ± 0.032 | 0.168 ± 0.0092 | 0.0406 ± 0.0038 | 0.0456 ± 0.0018 | 0.0722 ± 0.018 | 0.0816 ± 0.0097
ASCFFLFVLRVF | 0.0589 ± 0.0071 | 0.113 ± 0.0091 | 0.169 ± 0.016 | 0.271 ± 0.0072 | 0.13 ± 0.0043 | 0.112 ± 0.017 | 0.14 ± 0.019 | 0.233 ± 0.041
ATLWVWCFSSHV | 0.601 ± 0.047 | 0.6418 ± 0.003 | 0.469 ± 0.019 | 0.62 ± 0.013 | 0.438 ± 0.023 | 0.447 ± 0.021 | 0.5991 ± 0.0014 | 0.497 ± 0.078
ATSGATILVLIA | 0.569 ± 0.014 | 0.65 ± 0.0048 | 0.488 ± 0.024 | 0.6473 ± 0.0042 | 0.188 ± 0.0099 | 0.218 ± 0.021 | 0.342 ± 0.0064 | 0.307 ± 0.0047
CEVLVVVMCLWG | 0.199 ± 0.0023 | 0.295 ± 0.043 | 0.224 ± 0.029 | 0.3738 ± 0.0025 | 0.196 ± 0.006 | 0.217 ± 0.025 | 0.32342 ± 4.2e-05 | 0.285 ± 0.024
CFFPFLCFVVGA | 0.482 ± 0.021 | 0.492 ± 0.023 | 0.358 ± 0.025 | 0.514 ± 0.0085 | 0.3205 ± 0.0017 | 0.346 ± 0.013 | 0.49 ± 0.0059 | 0.445 ± 0.017

Sequence | protein stability index (Saccharomyces cerevisiae [1]; [3]) | protein stability index (Saccharomyces cerevisiae [1]; [4]) | protein stability index (Saccharomyces cerevisiae [1]; [5]) | protein stability index (Saccharomyces cerevisiae [1]; [6]) | protein stability index (Saccharomyces cerevisiae [1]; [7]) | protein stability index (Saccharomyces cerevisiae [1]; [8]) | protein stability index (Saccharomyces cerevisiae [1]; [9]) | protein stability index (Saccharomyces cerevisiae [2])
CLFFFFFHLPIF | 0.445 ± 0.022 | 0.508 ± 0.016 | 0.425 ± 0.026 | 0.533 ± 0.033 | 0.4011 ± 0.00062 | 0.389 ± 0.023 | 0.476 ± 0.021 | 0.472 ± 0.032
CLFSVLFPLFFR | 0.0858 ± 0.049 | 0.0347 ± 0.0022 | 0.137 ± 0.042 | 0.158 ± 0.016 | 0.6444 ± 0.0064 | 0.142 ± 0.0055 | 0.184 ± 0.073 | 0.214 ± 0.039
CLGLFPSLLRLS | 0.666 ± 0.031 | 0.737 ± 0.021 | 0.644 ± 0.02 | 0.731 ± 0.0092 | 0.285 ± 0.026 | 0.291 ± 0.033 | 0.535 ± 0.009 | 0.325 ± 0.032
CLLWVVWSLLWV | 0.346 ± 0.0041 | 0.432 ± 0.011 | 0.283 ± 0.035 | 0.4506 ± 0.0035 | 0.269 ± 0.0094 | 0.257 ± 0.034 | 0.416 ± 0.0074 | 0.353 ± 0.095
CLVFGFLFFIVI | 0.35 ± 0.028 | 0.411 ± 0.061 | 0.338 ± 0.026 | 0.449 ± 0.016 | 0.435 ± 0.016 | 0.35 ± 0.029 | 0.447 ± 0.037 | 0.404 ± 0.021
CLWNFWVRFLLL | 0.298 ± 0.042 | 0.406 ± 0.023 | 0.399 ± 0.014 | 0.509 ± 0.015 | 0.164 ± 0.0046 | 0.139 ± 0.01 | 0.135 ± 0.0083 | 0.175 ± 0.022
CMLGVVRVLVWF | 0.028 ± 0.0058 | 0.138 ± 0.075 | 0.129 ± 0.029 | 0.1929 ± 0.0009 | 0.101 ± 0.0035 | 0.105 ± 0.051 | 0.17 ± 0.027 | 0.186 ± 0.033
CMLPWPILLCPF | 0.322 ± 0.0044 | 0.329 ± 0.023 | 0.391 ± 0.024 | 0.469 ± 0.023 | 0.517 ± 0.022 | 0.389 ± 0.0084 | 0.456 ± 0.03 | 0.46 ± 0.0055
CMPVYYTVVIRL | 0.177 ± 0.052 | 0.102 ± 0.028 | 0.204 ± 0.029 | 0.294 ± 0.015 | 0.246 ± 0.021 | 0.159 ± 0.024 | 0.31 ± 0.021 | 0.296 ± 0.021
CPALTFCLLLSS | 0.539 ± 0.051 | 0.567 ± 0.0093 | 0.417 ± 0.029 | 0.5866 ± 0.0054 | 0.427 ± 0.015 | 0.383 ± 0.019 | 0.557 ± 0.01 | 0.457 ± 0.0097
CPFLTLLISLDV | 0.52 ± 0.034 | 0.555 ± 0.044 | 0.411 ± 0.032 | 0.531 ± 0.0067 | 0.407 ± 0.011 | 0.426 ± 0.01 | 0.513 ± 0.028 | 0.478 ± 0.011
CPICDFLFLALF | 0.565 ± 0.021 | 0.599 ± 0.064 | 0.483 ± 0.037 | 0.651 ± 0.022 | 0.469 ± 0.023 | 0.424 ± 0.028 | 0.598 ± 0.03 | 0.424 ± 0.054
CRHCFVLLYFDY | 0.304 ± 0.026 | 0.304 ± 0.013 | 0.321 ± 0.033 | 0.384 ± 0.0093 | 0.421 ± 0.017 | 0.318 ± 0.023 | 0.374 ± 0.0097 | 0.349 ± 0.00063
CRLATILRITAL | 0.574 ± 0.028 | 0.665 ± 0.026 | 0.552 ± 0.022 | 0.658 ± 0.021 | 0.193 ± 0.008 | 0.241 ± 0.031 | 0.4445 ± 0.00077 | 0.384 ± 0.018
CSLFFFRLIFTL | 0.101 ± 0.025 | 0.185 ± 0.026 | 0.219 ± 0.032 | 0.339 ± 0.0091 | 0.0783 ± 0.0034 | 0.0603 ± 0.017 | 0.0702 ± 0.01 | 0.0826 ± 0.014
CSLFYVFYRRLL | 0.595 ± 0.026 | 0.665 ± 0.012 | 0.556 ± 0.0087 | 0.649 ± 0.01 | 0.285 ± 0.011 | 0.342 ± 0.051 | 0.5212 ± 0.0043 | 0.38 ± 0.0078
CSLRGLFLVVSV | 0.3652 ± 0.0033 | 0.396 ± 0.018 | 0.289 ± 0.032 | 0.474 ± 0.016 | 0.339 ± 0.025 | 0.292 ± 0.02 | 0.451 ± 0.01 | 0.405 ± 0.0065
CTLVFLFFDLCS | 0.413 ± 0.015 | 0.533 ± 0.087 | 0.333 ± 0.042 | 0.497 ± 0.03 | 0.263 ± 0.014 | 0.304 ± 0.018 | 0.4904 ± 0.0021 | 0.405 ± 0.053
CVCVVVCWRCGF | 0.378 ± 0.018 | 0.465 ± 0.035 | 0.306 ± 0.031 | 0.509 ± 0.021 | 0.276 ± 0.0091 | 0.327 ± 0.034 | 0.4555 ± 0.0043 | 0.481 ± 0.015
